Data taken from IntAct's records for PubMed 23434407.

B1: Calcium-binding protein 39 (Homo sapiens), Q9Y376 (parent)
chain: MPFPFGKSHKSPADIVKNLKESMAVLEKQDISDKKAEKATEEVSKNLVAMKEILYGTNEKEPQTEAVAQLAQELYNSGLLSTLVADLQLIDFEGKKDVAQIFNNILRRQIGTRTPTVEYICTQQNILFMLLKGYESPEIALNCGIMLRECIRHEPLAKIILWSEQFYDFFRYVEMSTFDIASDAFATFKDLLTRHKLLSAEFLEQHYDRFFSEYEKLLHSENYVTKRQSLKLLGELLLDRHNFTIMTKYISKPENLKLMMNLLRDKSRNIQFEAFHVFKVFVANPNKTQPILDILLKNQAKLIEFLSKFQNDRTEDEQFNDEKTYLVKQIRDLKRPAQQEA

Variants of: B1
Details: with STK26, Q9P289-1
Chain of STK26, Q9P289-1 (Q9P289 whole entry, looked up): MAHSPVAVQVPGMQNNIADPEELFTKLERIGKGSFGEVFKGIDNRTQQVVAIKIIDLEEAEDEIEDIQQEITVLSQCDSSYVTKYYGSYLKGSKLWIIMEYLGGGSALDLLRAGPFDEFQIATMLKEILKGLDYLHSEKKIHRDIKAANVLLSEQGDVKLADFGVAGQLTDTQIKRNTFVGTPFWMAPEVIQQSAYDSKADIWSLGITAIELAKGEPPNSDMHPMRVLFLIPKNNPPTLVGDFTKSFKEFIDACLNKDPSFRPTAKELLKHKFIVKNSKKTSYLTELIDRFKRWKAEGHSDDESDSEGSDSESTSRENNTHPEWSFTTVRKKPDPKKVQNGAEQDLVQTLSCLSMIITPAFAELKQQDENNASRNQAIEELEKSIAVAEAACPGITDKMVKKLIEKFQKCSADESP

Row | Variant | effect of a mutation on the interaction
1 | Y223A | decreasing interaction strength
2 | M260E | decreasing interaction strength
3 | F178E | decreasing interaction strength
4 | R227A | decreasing interaction strength
5 | F178E;V224E | decreasing interaction strength

Variants of: B1
Details: with STK26, Q9P289-1
Remark: another data set of the same source

Row | Variant | effect of a mutation on the interaction
6 | M260E | disrupting interaction strength
7 | F178E;V224E | disrupting interaction strength
